Reference: patent publication US20230348614A1 (VISTERRA, published 2023)
Primed or numbered codes have the meaning given here. The star is where a group is joined. dPEG8″ = dPEG8: discrete polyethylene glycol-8 linker (between N-terminal biotin and the peptide); dPEG8 = discrete polyethylene glycol-8 linker (long chain); Biotin = O=C1N[C@H]2[C@H](CS[C@H]2CCCCC(=O)*)N1

Key:
[1] = biological target: T1, Recombinant soluble human CD138 extracellular domain (analyte in SPR) (human, UniProt P18827 23-254); test: SPR (Carterra LSA): antibody captured by anti-human IgG, CD138 as analyte, pH 7.4, 1:1 fit
T1 construct: extracellular domain; also called recombinant CD138 (the antigen)
T1 sequence (looked up): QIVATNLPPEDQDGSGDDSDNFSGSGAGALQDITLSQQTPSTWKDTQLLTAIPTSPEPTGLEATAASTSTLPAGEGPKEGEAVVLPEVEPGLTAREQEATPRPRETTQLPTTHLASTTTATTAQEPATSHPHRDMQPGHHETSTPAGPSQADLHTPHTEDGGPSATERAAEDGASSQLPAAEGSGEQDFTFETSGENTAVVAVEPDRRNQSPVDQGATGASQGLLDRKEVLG
Text: This method as described, immobilizes the target (recombinant CD138) through biotinylation-streptavidin capture. Such a method may, in principle, lead to biases in binding due to either chemical modification of the capture ligand and/or avidity effects due to immobilization of this ligand on the biosensor. Moreover, this method depends on diffusion-based principles of dissociation leading to non-equilibrium binding states. Surface plasmon resonance is an orthogonal, commonly used method for determining binding kinetics and deriving affinity values based on these parameters. In this method, antibodies were directly coupled to the sensor chip and probed with several concentrations of recombinant CD138 (the antigen) varying from 100 nM to 41 nM. This evaluation was completed under two different pH conditions, i.e., pH 6.0 and pH […].
Antibody-CD138 binding was evaluated on a Carterra LSA high throughput SPR instrument. Binding experiments were carried out using binding buffer comprising 100 mM sodium phosphate, 150 mM NaCl and 0.05% Tween-20 buffer. Buffers were adjusted to target pH of 7.4 and 6.0, by use of sodium hydroxide or HCL, respectively. All steps were also carried out independently at these respective buffer pHs. Antibodies were captured on the SPR (CMDP) chip using an anti-human IgG covalently coupled to the CMDP chip based on standard protocols, as described by the instrument manufacturer, and to create a uniform lawn on the chip surface at a target 25 nM anti-CD138 antibody concentration. Binding to CD138 was achieved by uniformly passing binding analyte with increasing concentrations of CD138 (41 nM-100 nM) for 15 minutes and allowing dissociation for 20 minutes. Analyte was flowed over the chip at a rate of 2 milliliters/minute. Raw binding data were processed using kinetics data analysis software also provided by the manufacturer (Carterra) following as 2X background subtraction that used the first six injections of buffer blanks and the internal machine reference controls. Kinetic data was analysed using a global fit and assuming a 1:1 binding interaction. Further analysis of individual binding curves (sensorgrams) with best fits were used to refine the calculation of kinetic parameters.

Peptide 2D = biological target: T2, Peptide 2D (human); test: BLI (Octet): biotinylated peptide (50 nM) on streptavidin sensors, mAb 4320 in solution, PBS pH 7.4; qualitative score
T2 construct: Chemically synthesized human CD138 peptide, 15 residues
T2 peptide: {Biotin-dPEG8″}-GEAVVLPEVEPGLTA-OH

Peptide 138-2-1 = biological target: T3, Peptide 138-2-1 (human); test: BLI (Octet): biotinylated peptide (50 nM) loaded on streptavidin SA biosensors, mAb 4320 in solution, PBS pH 7.4 with 0.02% Tween-20
T3 construct: Chemically synthesized human CD138 peptide, 8 residues
T3 peptide: {Biotin-dPEG8}-VLPEVEPG-OH

Peptide 138-2-2 = biological target: T4, Peptide 138-2-2 (human); test: as above
T4 construct: Chemically synthesized human CD138 peptide, 7 residues
T4 peptide: {Biotin-dPEG8}-LPEVEPG-OH

Peptide 138-2-3 = biological target: T5, Peptide 138-2-3 (human); test: as above
T5 construct: Chemically synthesized human CD138 peptide, 8 residues
T5 peptide: {Biotin-dPEG8}-PEVEPGLT-OH

Peptide 6B = biological target: T6, Peptide 6B (human, N-terminal biotin through a long chain (dPEG8) linker (Biot-LC-); C-terminal -OH); test: BLI (Octet): biotinylated peptide (50 nM) loaded on streptavidin SA biosensors, mAb 4320 in solution, 300 s association then dissociation, PBS pH 7.4 with 0.02% Tween-20
T6 construct: Chemically synthesized human CD138 peptide, 33 residues
T6 peptide: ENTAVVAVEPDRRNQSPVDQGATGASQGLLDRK

Peptide 6F = biological target: T7, Peptide 6F (human); test: as above
T7 construct: Chemically synthesized human CD138 peptide, 15 residues
T7 peptide: {Biotin-dPEG8″}-ENTAVVAVEPDRRNQ-OH

Peptide 138-6-1 = biological target: T8, Peptide 138-6-1 (human); test: as above
T8 construct: Chemically synthesized human CD138 peptide, 8 residues
T8 peptide: {Biotin-dPEG8}-VVAVEPDR-OH

Peptide 2A = biological target: T9, Peptide 2A (human, N-terminal biotin through a long chain (dPEG8) linker (Biot-LC-); C-terminal -OH); test: as above
T9 construct: Chemically synthesized human CD138 peptide, 34 residues; also called Pep2a
T9 peptide: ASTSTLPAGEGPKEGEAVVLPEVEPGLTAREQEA

Peptide 2C = biological target: T10, Peptide 2C (human, N-terminal biotin through a long chain (dPEG8) linker (Biot-LC-); C-terminal -OH); test: as above
T10 construct: Chemically synthesized human CD138 peptide, 20 residues
T10 peptide: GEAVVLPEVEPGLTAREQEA

Peptide 6 = biological target: T11, Peptide 6 (human, N-terminal biotin through a long chain (dPEG8) linker (Biot-LC-); C-terminal -OH); test: as above
T11 construct: Chemically synthesized human CD138 peptide, 41 residues; also called Pep6
T11 peptide: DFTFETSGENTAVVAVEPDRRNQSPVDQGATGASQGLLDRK

B1: mAb 4320 (parental humanized anti-CD138 antibody) (antibody, human IgG1, kappa, V domains shown)
VH: QVQLVQSGAEVKKPGASVKVSCKASGYSFSSYYMHWVRQAPGQGLEWMGTIHPSDSTTNYNQKFQGRVTMTVDTSTRTAYMELSSLRSEDTAVYYCANFVYWGQGTTVTVSS
VL: DIVMTQTPLSLSVTPGQPASISCKSSKSLLYKDGKTYLNWFLQKPGQSPQLLIYVVSTRASGVPDRFSGSGSGTDFTLKISRVEAEDVGVYYCQQLVEYPYTFGQGTKLEIKR
notes: Full-length IgG; heavy constant region human gamma 1 (m3 allotype), light chain kappa constant*01
For B1, the Kd [1] was 0.2 nM, the koff [1] was 8.5e-05 s⁻¹ and the kon [1] was 370000 M⁻¹ s⁻¹. B1: binds (Peptide 2D); no binding (Peptide 138-2-1); no binding (Peptide 138-2-2). B1: no binding (Peptide 138-2-3); binds (Peptide 6B); binds (Peptide 6F). B1: binds (Peptide 138-6-1); binds (Peptide 2A); binds (Peptide 2C). B1: binds (Peptide 6).
